{
  "source": "paper PMC10371346",
  "about": "“Modeling of ACE2 and antibodies bound to SARS-CoV-2 provides insights into infectivity and immune evasion” (JCI Insight, 2023)",
  "biological_target": "T1, recombinant His-tagged wild-type SARS-CoV-2 Spike trimer (SARS-CoV-2, Wuhan-Hu-1 (wild-type), UniProt P0DTC2)",
  "T1 construct": "also called wild-type Spike trimer; wild-type Spike",
  "assay": "flow cytometry on cells; Cas1-CAR-NK92MI cells displaying the scFv-CAR incubated with recombinant His-tagged Spike trimer in PBS with 0.5 mM CaCl2 and 0.9 mM MgCl2, 1 hour at 4°C under gentle agitation; washed, stained with PE anti-His and Alexa Fluor 647 anti-human IgG (H+L); parental NK92MI as negative and 293T-hACE2 as positive control",
  "details": "one partner purified",
  "data": [
    {"binder": "REGN10933 (casirivimab) single chain variable fragment displayed as a chimeric antigen receptor on NK92MI cells (scFv, V domains shown, scFv domain of casirivimab (REGN10933); the variable domains are those of REGN10933 in PDB 6XDG; rest of the chimeric antigen receptor (hinge, transmembrane and signalling parts); also called Cas1-CAR; Cas1) VH: QVQLVESGGGLVKPGGSLRLSCAASGFTFSDYYMSWIRQAPGKGLEWVSYITYSGSTIYYADSVKGRFTISRDNAKSSLYLQMNSLRAEDTAVYYCARDRGTTMVPFDYWGQGTLVTVSS VL: DIQMTQSPSSLSASVGDRVTITCQASQDITNYLNWYQQKPGKAPKLLIYAASNLETGVPSRFSGSGSGTDFTFTISGLQPEDIATYYCQQYDNLPLTFGGGTKVEIK", "values": [
      {"measurement": "binding result", "result": "binds"}
    ]}
  ]
}
